In article PMC10675840, “Structure-function analysis of ceTIR-1/hSARM1 explains the lack of Wallerian axonal degeneration in C. elegans” (Cell reports, 2023):

B1: ceTIR-1^TIR (residues 703-872) [C. elegans] / itself (parent)
chain: MLSKQIDVFISYRRSTGNQLASLIKVLLQLRGYRVFIDVDKLYAGKFDSSLLKNIQAAKHFILVLTPNSLDRLLNDDNCEDWVHKELKCAFEHQKNIIPIFDTAFEFPTKEDQIPNDIRMITKYNGVKWVHDYQDACMAKVVRFITGELNRTTPTTKEMPSISRKTTQQR

Variants of: B1
Experiment: gel filtration (size exclusion chromatography)
Conditions: with itself

Q: How did the elution volume turn out when chain 1 L27H was run?
A: Its elution volume is 17.2 mL.
